Test results reported in US20250304700A1, “ANTI-BLOOD DENDRITIC CELL ANTIGEN 2 ANTIBODIES AND USES THEREOF” (Biogen MA Inc., priority 2012, published 2025).

T1: surface human BDCA2 (Homo sapiens, UniProt Q8WTT0)
T1 construct: stably transfected DG44 CHO cells co-expressing full-length BDCA2 and FcεRIγcDNAs (human or cynomolgus monkey); expressed in transfected cells
T1 sequence (Q8WTT0 1-213): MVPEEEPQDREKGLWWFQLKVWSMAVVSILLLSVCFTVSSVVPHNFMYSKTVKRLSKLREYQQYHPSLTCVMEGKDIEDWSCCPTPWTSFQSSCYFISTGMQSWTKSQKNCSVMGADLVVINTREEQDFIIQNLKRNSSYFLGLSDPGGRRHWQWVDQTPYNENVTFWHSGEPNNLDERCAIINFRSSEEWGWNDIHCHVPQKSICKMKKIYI
T1 sequence (P30273 19-86 partner): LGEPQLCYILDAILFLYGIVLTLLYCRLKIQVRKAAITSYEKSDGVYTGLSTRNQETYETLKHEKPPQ

T2: human BDCA2 ectodomain (Homo sapiens, UniProt Q8WTT0)
T2 construct: huBDCA2 ectodomain: residues 257-425 above (underlined); murine IgG2a Fc (with G4S linker) (N, cleaved yes); made in house
T2 sequence (Q8WTT0 45-213): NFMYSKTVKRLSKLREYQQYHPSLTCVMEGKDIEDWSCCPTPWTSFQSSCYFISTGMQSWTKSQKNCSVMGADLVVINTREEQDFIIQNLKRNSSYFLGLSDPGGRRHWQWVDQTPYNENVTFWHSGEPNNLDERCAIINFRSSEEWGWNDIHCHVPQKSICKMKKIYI


Assays:
[1] = test system: CD62L on the surface of human pDCs; assay: CD62L surface expression on pDCs by flow cytometry; type: cell-based; conditions: PBMC pre-treated 30 minutes, then 10 μg/mL BIIB059 for 1 hour
Procedure: The MFI of CD62L was determined by gating on pDCs as defined by CD14−, CD20−, HLA-DR+ and CD123+.
Metalloproteinase are known to induce CD62L shedding from the surface of immune cells. […] The surface expression of CD62L was assayed by flow cytometry. GM6001 inhibited the BIIB059-mediated down-modulation CD62L in a dose dependent manner (FIG. 45).

[2] = target: T1, surface human BDCA2; assay: Direct binding dilution titration FACS on surface human BDCA2; conditions: transfected cells co-expressing BDCA2 and FcεRIγ
Procedure: Expression vectors (ch24F4 heavy chain vectors pYL670 or pYL672 and ch24F4 light chain vector pYL671) were co-transfected into 293-EBNA cells and transfected cells were tested for antibody secretion and specificity (empty vector- and a molecularly cloned irrelevant mAb vector-transfected cells served as controls). […] Direct FACS binding to surface human BDCA2 confirmed the specificity of ch24F4. The EC50 binding of both variants of ch24F4 was equivalent to that of the murine 24F4 mAb by direct binding to surface expressed human BDCA2 by dilution titration FACS assay. Stable CHO cell lines secreting ch24F4-huIgG1, kappa mAb and agly ch24F4-huIgG4/G1 hybrid kappa mAb were produced by co-transfection with pYL672/pYL671 and pYL670/pYL671, respectively.
Site-directed mutagenesis was performed using Agilent's QuikChange II mutagenesis kit following the manufacturer's recommended protocol. The C95S variant was constructed using the mutagenic primer 5′ GCAACCTATTACTGTCAACAAAGTAATGAGGATCCTCGGAC 3′ (SEQ ID NO: 38) and its reverse complement, which introduced a new HincII site, producing plasmid pEAG2678. The C95T variant was constructed using the mutagenic primer 5′ CAACCTATTACTGTCAGCAAACTAATGAAGATCCTCGGACGTTCG 3′ (SEQ ID NO: 39) and its reverse complement, which removed a BamHI site, producing plasmid pEAG2679. […]

[3] = target: T2, human BDCA2 ectodomain; assay: Octet binding of mAbs on anti-human Fc tips to monomeric huBDCA2; conditions: Example 5, conditioned medium, hu24F4 variants
Procedure: Site-directed mutagenesis was performed using Agilent's QuikChange II mutagenesis kit following the manufacturer's recommended protocol. The C95S variant was constructed using the mutagenic primer 5′ GCAACCTATTACTGTCAACAAAGTAATGAGGATCCTCGGAC 3′ (SEQ ID NO: 38) and its reverse complement, which introduced a new HincII site, producing plasmid pEAG2678. The C95T variant was constructed using the mutagenic primer 5′ CAACCTATTACTGTCAGCAAACTAATGAAGATCCTCGGACGTTCG 3′ (SEQ ID NO: 39) and its reverse complement, which removed a BamHI site, producing plasmid pEAG2679. Mutated plasmids were identified by screening for the introduced restriction site changes. The full-length light chain cDNA sequences in the resultant plasmids were confirmed by DNA sequencing. Wildtype ch24F4 and the C95S and C95T variant mAbs were expressed transiently in 293E cells by co-transfection of pYL672 and pYL671, pEAG2678 or pEAG2679. Conditioned medium was harvested at 2 days post-transfection. Titers (assayed by Octet on anti-human Fc tips) of both variants were similar to that of wildtype ch24F4, and Western blots of nonreducing SDS-PAGE indicated no gross aggregation or obvious clipping relative to wildtype ch24F4 mAb. […] Conditioned medium containing ch24F4 and the C95 variant mAbs was assayed by Octet for binding to human BDCA2 ectodomain. Antibodies from conditioned medium from transiently transfected cells were bound to anti-human Fc tips, then monomeric huBDCA2 was flowed over the Octet tips, to examine binding and dissociation.
Conditioned medium containing ch24F4 and all hu24F4 variant mAbs was assayed by Octet for binding to human BDCA2 ectodomain. The monomeric huBDCA2 ectodomain was prepared by proteolytic cleavage from the purified muIgG2a Fc-huBDCA2 fusion protein (relevant plasmid: pEAG2423). Antibodies from conditioned medium from transiently transfected cells were bound to anti-human Fc tips, and then monomeric huBDCA2 was flowed over the Octet tips, to examine binding and dissociation.
To explore the possibility of enhancing hu24F4 affinity by substitution at the position of the 24F4 version L1 CDR L3 unpaired cysteine (C95S in hu24F4 light chain expression vector pYL740), a number of version L1 variants were constructed by site-directed mutagenesis. Backmutation to the unpaired cysteine, i.e., S95C, was constructed by site-directed mutagenesis producing plasmid pYL749. Variants S95T, S95A, and S95V were constructed by site-directed mutagenesis producing plasmids pYL750, pYL751, and pYL752, respectively. The full-length light chain cDNA sequences in the resultant plasmids were confirmed by DNA sequencing. C95 variant hu24F4 mAbs were expressed transiently in 293E cells by co-transfection of hu24F4 H4 heavy chain pYL746 or hu24F4 H5 heavy chain pYL747 with hu24F4 L1 variant light chains C95S pYL740, S95C pYL749, S95T pYL750, S95A pYL751 or S95V pYL752 plasmids. Conditioned medium was harvested at 2 days post-transfection. Titers (assayed by Octet on anti-human Fc tips) of all variants were similar, and Western blots of nonreducing SDS-PAGE indicated no gross aggregation or obvious clipping. Conditioned medium containing the C95 variant mAbs was assayed by Octet for binding to human BDCA2 ectodomain. Antibodies from conditioned medium from transiently transfected cells were bound to anti-human Fc tips, then monomeric huBDCA2 was flowed over the Octet tips, to examine binding and dissociation. C95A variants had the slowest off-rates.

Molecule	direct binding to surface human BDCA2, in words [2]	kdis [3]	kon [3]	BIIB059-mediated down-modulation of CD62L [1]
CNC(=O)[C@H](Cc1c[nH]c2ccccc12)NC(=O)[C@@H](CC(=O)NO)CC(C)C [GM6001, reference compound]				inhibited
H3/L1: hu24F4 variant, heavy chain version H3 (SEQ ID NO: 46), light chain version L1 (antibody, V domains shown) VH: EVQLVESGGGLVKPGGSLRLSCAASGFTFSTYTMSWVRQAPGKGLEWVSTISPGDSFGYYYPDSVQGRFTISRDNAKNSLYLQMNSLRAEDTAVYYCARDIYYNYGAWFAYWGQGTLVTVSS VL: DIQLTQSPSSLSASVGDRVTITCKASQSVDYDGDSYMNWYQQKPGKAPKLLIYAASTLESGVPSRFSGSGSGTDFTLTISSLQPEDFATYYCQQSNEDPRTFGQGTKVEIK		0.00586 s⁻¹	452000 M⁻¹ s⁻¹	
H2/L1: hu24F4 variant, heavy chain version H2 (SEQ ID NO: 44), light chain version L1 (antibody, V domains shown) VH: EVQLVESGGGLVKPGGSLRLSCAASGFTFSTYTMSWVRQAPGKGLEWVSTISPGDSSTIYYADSVKGRFTISRDNAKNSLYLQMNSLRAEDTAVYYCARDIYYNYGAWFAYWGQGTLVTVSS VL: DIQLTQSPSSLSASVGDRVTITCKASQSVDYDGDSYMNWYQQKPGKAPKLLIYAASTLESGVPSRFSGSGSGTDFTLTISSLQPEDFATYYCQQSNEDPRTFGQGTKVEIK		3.35e-06 s⁻¹	100000 M⁻¹ s⁻¹	

The next lines start with results.

direct binding to surface human BDCA2, in words [2]	kdis [3]	kon [3]	Molecule	BIIB059-mediated down-modulation of CD62L [1]
“best” variants			H5/L1: hu24F4 variant, heavy chain version H5 (SEQ ID NO: 49), light chain version L1 (antibody, V domains shown) VH: DVQLVQSGGGLVKPGGSLRLSCAASGFTFSTYTMSWVRQAPGKGLEWVATISPGDSFGYYYPDSVQGRFTISRDNAKNSLYLQMNRLRAEDTAVYYCTRDIYYNYGAWFAYWGRGTLVTVSS VL: DIQLTQSPSSLSASVGDRVTITCKASQSVDYDGDSYMNWYQQKPGKAPKLLIYAASTLESGVPSRFSGSGSGTDFTLTISSLQPEDFATYYCQQSNEDPRTFGQGTKVEIK	
	0.00137 s⁻¹	273000 M⁻¹ s⁻¹	H6/L0: hu24F4 variant, heavy chain version H6 (SEQ ID NO: 52), light chain version L0 (SEQ ID NO: 54) (antibody, V domains shown) VH: DVQLVESGGGLVKPGGSLRLSCAASGFTFSTYTMSWVRQAPGKGLEWVATISGGNNYGYSYPDSVKGRFTISRDNAKNSLYLQMNSLRAEDTAVYYCTRDIYYNYGAWFAYWGQGTLVTVSS VL: AIQLTQSPSSLSASVGDRVTITCKASQSVDYDGDSYMNWYQQKPGKAPKLLIYAASTLESGVPSRFSGSGSGTDFTLTISSLQPEDFATYYCQQSNEDPRTFGQGTKVEIK	
	5.03e-06 s⁻¹	100000 M⁻¹ s⁻¹	H1/L1: hu24F4 variant, heavy chain version H1 (SEQ ID NO: 42), light chain version L1 (antibody, V domains shown) VH: EVQLVESGGGLVKPGGSLRLSCAASGFTFSTYTMSWVRQAPGKGLEWVSTISPGDSFGYYPDSVKGRFTISRDNAKNSLYLQMNSLRAEDTAVYYCARDIYYNYGAWFAYWGQGTLVTVSS VL: DIQLTQSPSSLSASVGDRVTITCKASQSVDYDGDSYMNWYQQKPGKAPKLLIYAASTLESGVPSRFSGSGSGTDFTLTISSLQPEDFATYYCQQSNEDPRTFGQGTKVEIK	
	9.5e-06 s⁻¹	100000 M⁻¹ s⁻¹	H0/L1: hu24F4 variant, heavy chain version H0 (SEQ ID NO: 40), light chain version L1 (SEQ ID NO: 56) (antibody, V domains shown) VH: EVQLVESGGGLVKPGGSLRLSCAASGFTFSTYTMSWVRQAPGKGLEWVSAISGSGGSTYYADSVKGRFTISRDNAKNSLYLQMNSLRAEDTAVYYCARDIYYNYGAWFAYWGQGTLVTVSS VL: DIQLTQSPSSLSASVGDRVTITCKASQSVDYDGDSYMNWYQQKPGKAPKLLIYAASTLESGVPSRFSGSGSGTDFTLTISSLQPEDFATYYCQQSNEDPRTFGQGTKVEIK	
